# From patent publication US20210147513A1
# Assays:
# hDPP4 Cells (human) = hDPP4 Cells (human) (UniProt P27487); assay: FACS; conditions: Fc fusion
# [1] = target: S1(349-590)-hFc (MERS-CoV; human); assay: BLI (Octet RED96), wild type RBD-hFc
# Chain of hDPP4 Cells (human) (P27487 whole entry, the tested form may be a part): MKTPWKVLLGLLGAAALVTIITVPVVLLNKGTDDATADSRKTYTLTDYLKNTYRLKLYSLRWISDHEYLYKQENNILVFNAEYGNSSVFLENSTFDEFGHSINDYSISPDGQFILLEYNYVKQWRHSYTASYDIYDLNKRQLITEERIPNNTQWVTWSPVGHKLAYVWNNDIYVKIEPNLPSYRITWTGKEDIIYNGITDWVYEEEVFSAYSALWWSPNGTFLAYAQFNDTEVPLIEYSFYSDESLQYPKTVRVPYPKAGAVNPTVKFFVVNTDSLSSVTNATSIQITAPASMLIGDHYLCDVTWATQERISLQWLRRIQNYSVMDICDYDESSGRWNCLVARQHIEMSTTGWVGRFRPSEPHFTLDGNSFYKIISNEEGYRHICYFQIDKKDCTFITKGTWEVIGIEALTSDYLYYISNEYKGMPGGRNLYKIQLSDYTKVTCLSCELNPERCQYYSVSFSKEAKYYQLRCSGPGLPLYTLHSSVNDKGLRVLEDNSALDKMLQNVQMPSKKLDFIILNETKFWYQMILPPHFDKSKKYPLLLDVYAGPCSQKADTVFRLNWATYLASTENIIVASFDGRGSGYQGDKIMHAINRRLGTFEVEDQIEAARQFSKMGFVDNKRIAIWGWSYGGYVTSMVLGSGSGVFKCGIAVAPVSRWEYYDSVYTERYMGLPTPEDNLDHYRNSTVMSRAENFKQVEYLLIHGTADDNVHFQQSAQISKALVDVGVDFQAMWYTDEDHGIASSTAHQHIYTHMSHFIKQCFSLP
Substance,EC50 (hDPP4 Cells (human)) [µg/mL],Kd [1] [nM]
Wt. RBD,0.015,
Recombinant soluble human DPP4 (from UniProt P27487 29-766) (receptor),,21.4
